One block for each binder: values may come before it. The star is where a group is joined. Nonanoyl = CCCCCCCCC(=O)*
Assays:
CCR5 [1] = molecular target: T1, CCR5 (Homo sapiens (Human), UniProt P51681); experiment: cell-based or functional assay
CCR5 [2] = molecular target: T1, CCR5; experiment: cell-based or functional assay; remark: listed apart in the source

B2: Aminooxypentane-RANTES (2-68) (ligand)
chain: {CH3‑(CH2)4‑O‑N:CH‑CO}-PYSSDTTPCCFAYIARPLPRAHIKEYFYTSGKCSNPAVVFVTRKNRQVCANPEKKWVREYINSLEMS
modifications: ends and bridges not checked
Average Infectivity IC50 (cell-free viral infection assay) (CCR5 [2]): 0.145 nM
Cell-Fusion Result For Comparison (IC50) (CCR5 [2]): 0.48 nM
Mean Relative Potency (IC50 in the envelope-mediated cell fusion assay, relative to AOP-RANTES = 100) (CCR5 [1]): 100 relative to AOP-RANTES = 100 (arbitrary value of the control)

B3: AOP-RANTES-K(palmitoyl)-G (ligand)
chain: PYSSDTTPCCFAYIARPLPRAHIKEYFYTSGKCSNPAVVFVTRKNRQVCANPEKKWVREYINSLEMSKG
modifications: N-terminal aminooxypentane in place of Ser 1; epsilon amino group of the Lys of the C-terminal extension carries glyoxylyl=AoA-ethylene diamine-palmitate ("palmitoyl"), joined by an oxime bond
Mean Relative Potency (IC50 in the envelope-mediated cell fusion assay, relative to AOP-RANTES = 100) (CCR5 [1]): 45 relative to AOP-RANTES = 100

Second part, the binder after the results:

Mean Relative Potency (IC50 in the envelope-mediated cell fusion assay, relative to AOP-RANTES = 100) (CCR5 [1]): 13 relative to AOP-RANTES = 100
B1: NNY-…-L19I-RANTES (20-68) (ligand)
chain: Nonanoyl-PYSSDTTPCCFAYIARPIPRAHIKEYFYTSGKCSNPAVVFVTRKNRQVCANPEKKWVREYINSLEMS
modifications: ends and bridges not checked

Mean Relative Potency (IC50 in the envelope-mediated cell fusion assay, relative to AOP-RANTES = 100) (CCR5 [1]): 15 relative to AOP-RANTES = 100
B4: NNY-PYSSDTTPCCFAYI-A16S-RANTES (17-68) (ligand)
chain: Nonanoyl-PYSSDTTPCCFAYISRPLPRAHIKEYFYTSGKCSNPAVVFVTRKNRQVCANPEKKWVREYINSLEMS
modifications: ends and bridges not checked

Average Infectivity IC50 (cell-free viral infection assay) (CCR5 [2]): 0.024 nM
Cell-Fusion Result For Comparison (IC50) (CCR5 [2]): 0.097 nM
B5: n-Nonanoyl-RANTES (2-68) (ligand)
chain: Nonanoyl-PYSSDTTPCCFAYIARPLPRAHIKEYFYTSGKCSNPAVVFVTRKNRQVCANPEKKWVREYINSLEMS
modifications: ends and bridges not checked
